Results: patent US20220204601A1 (ADEL, published 2022)
Ends that are not written are not given here.

Experiments:
Tau (Acetylation -) = target: T1, Tau (Acetylation -); assay: western blot
T1 construct: also called non-Ac tau protein; non-acetylated wild type tau protein
Experimental: (§1) In order to identify specific binding of the ADEL-Y01m antibody prepared in Preparation Example 2 to acetylated tau protein, the wild-type tau protein and the tau protein (Tau K280A) in which the 280th amino acid lysine is replaced with alanine were acetylated in vitro. Here, acetylation of the wild-type Tau protein and the Tau K280A protein was performed in the same manner as in the preparation method of the acetylated K18 protein fragment in Preparation Example 1. Then, an antigen-antibody specific binding reaction of the ADEL-Y01m antibody was checked through western blotting.
(§2) First, the concentrations of the wild-type Tau protein and the Tau K280A protein were measured through Bradford Assay. Each of the proteins was mixed with 4× sample buffer (60 mM Tris-HCl [pH 6.8], 2% w/v SDS, 25% v/v glycerol, 14.4 mM v/v β-mercaptoethanol, and bromophenol blue). Thereafter, each protein was electrophoresed on an SDS-PAGE gel. Then, the electrophoresed gel was separated and transferred onto a PVDF membrane (BioRad, California, USA). Treatment with a blocking buffer (0.1% v/v Tween-20 [PBST], 3% w/v BSA, or 5% v/v skim milk in PBS buffer) was performed and reaction was allowed to proceed for 1 hour. Then, treatment with an anti-acetyl-lysine antibody (anti-acetyl-lysine, Cell Signaling, 9441) or ADEL-Y01m antibody as a primary antibody was performed and reaction was allowed to proceed at 4° C. overnight. The next day, the PVDF membrane was washed three times with a washing buffer (0.1% v/v Tween-20 [PBST] in PBS buffer), and then treated with HRP-labeled anti-mouse IgG antibody (Bioxcell, BE0083). The PVDF membrane was treated with a chemiluminescent reagent (Thermo Fisher Scientific). Then, measurement and analysis were performed using x-ray film and ImageJ software (NIH, Bethesda, Md.).

Tau K280A protein = target: T2, Tau K280A protein (human, UniProt P10636 2-758); assay: western blot
T2 construct: Tau protein with lysine 280 replaced by alanine, not acetylated
Experimental: as §1, §2

[1] = target: T3, acetylated Tau K280A protein (human, UniProt P10636 2-758, acetylated in vitro with P300 enzyme and acetyl CoA; sites not stated); assay: western blot
T3 construct: Tau K280A acetylated in the same manner as the acetylated K18 fragment; also called Tau K280A (acetylated)
Experimental: as §1, §2

K280-ac protein fragment [2] = target: T4, K280-ac protein fragment (human); assay: BLI, Octet K2; antibody fixed on AR2G biosensor, K280-ac fragment in solution
T4 construct: also called mAC
T4 peptide: VQIINK(Ac)KLDLSN
Experimental: (§3) An affinity between the K280-ac protein fragment prepared in Preparation Example 1 and the ADEL-Y01m antibody prepared in Preparation Example 2 was measured through the Octet® K2 System (Fortebio).
(§4) The ADEL-Y01m antibody was fixed on AR2G biosensor according to the manufacturer's manual. The surface of the biosensor was hydrated with water for 10 minutes, and then activated using a mixture of 20 mM 1-ethyl-3-[3-dimethylaminopropyl] carbodiimide hydrochloride (EDC) and 10 mM N-hydroxysulfosuccinimide (s-NHS). The ADEL-Y01m antibody was fixed on the activated biosensor using 10 mM sodium acetate buffer (pH 5.0) and quenched with 1M ethanol amine (pH 8.0) for 5 minutes. The biosensor on which the ADEL-Y01m antibody is fixed was immersed in 1×PBS buffer (pH 7.4) for 60 seconds, to establish a baseline. Then, the biosensor was immersed for 60 seconds in wells containing different concentrations of the K280-ac protein fragment (antigen) or BSA-bound peptide. Thereafter, the biosensor was immersed again in 1×PBS buffer (pH 7.4) for 10 minutes so that dissociation occurs. The experimental data were evaluated by Octet Data Analysis (SW version: 9.0.0.10).

K280-ac protein fragment [3] = target: T4, K280-ac protein fragment; assay: Octet K2 system, antibody fixed on AR2G biosensor, antigen in solution
Experimental: as §3, §4

T2 sequence (P10636 other isoform, or with tags, fused parts or gaps K280A K280A limits assumed): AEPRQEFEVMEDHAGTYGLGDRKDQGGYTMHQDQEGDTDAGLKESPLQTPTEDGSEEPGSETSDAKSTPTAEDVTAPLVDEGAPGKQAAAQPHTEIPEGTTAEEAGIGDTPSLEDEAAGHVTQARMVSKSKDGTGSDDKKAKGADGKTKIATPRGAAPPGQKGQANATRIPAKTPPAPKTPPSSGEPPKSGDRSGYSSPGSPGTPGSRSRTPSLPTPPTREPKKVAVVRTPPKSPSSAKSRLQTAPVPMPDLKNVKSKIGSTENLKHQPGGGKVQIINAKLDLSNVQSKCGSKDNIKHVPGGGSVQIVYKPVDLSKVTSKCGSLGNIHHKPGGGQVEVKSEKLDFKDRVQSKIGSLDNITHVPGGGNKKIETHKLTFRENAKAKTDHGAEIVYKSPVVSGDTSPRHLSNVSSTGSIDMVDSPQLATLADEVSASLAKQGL
T3 sequence (P10636 other isoform, or with tags, fused parts or gaps K280A K280A limits assumed): as above
T1 sequence (tau protein, as listed by the source): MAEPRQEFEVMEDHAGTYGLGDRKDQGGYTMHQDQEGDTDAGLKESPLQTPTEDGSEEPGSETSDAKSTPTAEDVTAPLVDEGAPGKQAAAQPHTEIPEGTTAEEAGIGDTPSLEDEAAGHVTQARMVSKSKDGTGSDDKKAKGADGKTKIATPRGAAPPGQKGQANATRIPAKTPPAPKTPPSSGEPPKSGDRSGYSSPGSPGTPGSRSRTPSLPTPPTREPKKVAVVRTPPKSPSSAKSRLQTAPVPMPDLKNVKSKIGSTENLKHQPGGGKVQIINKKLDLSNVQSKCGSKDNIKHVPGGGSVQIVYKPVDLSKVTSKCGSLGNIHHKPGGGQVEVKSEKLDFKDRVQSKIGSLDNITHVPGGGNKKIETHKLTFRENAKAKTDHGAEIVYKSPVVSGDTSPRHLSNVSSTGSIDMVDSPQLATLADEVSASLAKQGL

B1: ADEL-Y01m antibody (antibody, V domains shown)
VH: EVQLEESGPSLVKPSQTLSLTCSVTGDSITSGYWNWIRKFPGNKLEYMGYIRYSGRTYYNPSLKSRISITRDTSKNQFYLQLISVTTEDTATYYCASVYFTYWGQGTLVTVSS
VL: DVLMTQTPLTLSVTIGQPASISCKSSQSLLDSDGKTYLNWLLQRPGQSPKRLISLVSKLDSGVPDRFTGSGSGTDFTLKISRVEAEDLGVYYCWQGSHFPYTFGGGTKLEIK
notes: Mouse monoclonal antibody from a hybridoma; also called Y01m01; antibody produced from the #15E5 hybridoma cell line (clone #1)
Does B1 bind (Tau (Acetylation -))?
Result: no binding

Does B1 bind (Tau K280A protein)?
Result: no binding

Does B1 bind [1]?
Result: no binding

And the Kd (K280-ac protein fragment [2])?
Its Kd is 0.257 nM.

What about the koff (K280-ac protein fragment [3]) of the same binder?
Its koff is 0.000157 s⁻¹.

What about the kon (K280-ac protein fragment [3]) of the same binder?
The kon was 447000 M⁻¹ s⁻¹.
